These substances were tested against HLA-A*01:01 (Homo sapiens, UniProt P04439, A114D/A174V/A182V/D101N/D185E/E176A/E190D/L180R/Q94H/R68K/S129P/T187R/V100A/V91M/W191G) (assay: MHC binding assay: UV-ligand exchange, ELISA of stabilized MHC complexes (peptide exchange yield)). Details: binding to HLA-A*01:01, UV-ligand exchange.
Description: Candidate peptides for T cell based therapies according to the present invention were further tested for their MHC binding capacity (affinity). The individual peptide-MHC complexes were produced by UV-ligand exchange, where a UV-sensitive peptide is cleaved upon UV-irradiation and exchanged with the peptide of interest as analyzed. Only peptide candidates that can effectively bind and stabilize the peptide-receptive MHC molecules prevent dissociation of the MHC complexes. To determine the yield of the exchange reaction, an ELISA was performed based on the detection of the light chain (β2m) of stabilized MHC complexes. The assay was performed as generally described in Rodenko et al. (Rodenko et al., 2006)
96 well MAXISorp plates (NUNC) were coated over night with 2 ug/ml streptavidin in PBS at room temperature, washed 4× and blocked for 1 h at 37° C. in 2% BSA containing blocking buffer. Refolded HLA-A*02:01/MLA-001 monomers served as standards, covering the range of 15-500 ng/ml. Peptide-MHC monomers of the UV-exchange reaction were diluted 100-fold in blocking buffer. Samples were incubated for 1 h at 37° C., washed four times, incubated with 2 ug/ml HRP conjugated anti-β2m for 1 h at 37° C., washed again and detected with TMB solution that is stopped with […]. Absorption was measured at 450 nm.

| Substance | Peptide exchange |
| --- | --- |
| 16 (NSDISIPEY; listed as Homo sapiens) [compound 16] | +++ (>50 = +++) |
| 163 (KIRAEVLSHY; listed as Homo sapiens) [compound 163] | ++ (>20% = ++) |
| 86 (VDPASNTY; listed as Homo sapiens) [compound 86] | ++ (>20% = ++) |
| 28 (PSEVPVDSHYY; listed as Homo sapiens) [compound 28] | +++ (>50 = +++) |
| 147 (AQVQDTGRY; listed as Homo sapiens) [compound 147] | +++ (>50 = +++) |
| 36 (MTSTEQSLY; listed as Homo sapiens) [compound 36] | +++ (>50 = +++) |
| 31 (VSDHLQAGMLGQY; listed as Homo sapiens) [compound 31] | +++ (>50 = +++) |
| 224 (RTDEGDNRVW; listed as Homo sapiens) [compound 224] | ++ (>20% = ++) |
| 187 (TQKSVQVLAY; listed as Homo sapiens) [compound 187] | ++ (>20% = ++) |
| 167 (RAVQPGETY; listed as Homo sapiens) [compound 167] | +++ (>50 = +++) |
| 99 (AADSNPSEL; listed as Homo sapiens) [compound 99] | ++ (>20% = ++) |
| 200 (SLPEFGLTY; listed as Homo sapiens) [compound 200] | ++ (>20% = ++) |
| 175 (GLEYEAPKLY; listed as Homo sapiens) [compound 175] | ++ (>20% = ++) |
| 211 (YLNEWGSRF; listed as Homo sapiens) [compound 211] | ++ (>20% = ++) |
| 5 (FMVIAGMPLFY; listed as Homo sapiens) [compound 5] | +++ (>50 = +++) |
| 180 (AQISDTGRY; listed as Homo sapiens) [compound 180] | ++ (>20% = ++) |
| 208 (LLISKAEDY; listed as Homo sapiens) [compound 208] | ++ (>20% = ++) |
| 63 (TSEISQNALMY; listed as Homo sapiens) [compound 63] | ++++ (>75% = ++++) |
| 139 (PVHDSVGVTY; listed as Homo sapiens) [compound 139] | ++ (>20% = ++) |
| 188 (DIPDYLLQY; listed as Homo sapiens) [compound 188] | +++ (>50 = +++) |
| 209 (EADPFLKYL; listed as Homo sapiens) [compound 209] | ++ (>20% = ++) |
| 34 (SSWSAGENDSY; listed as Homo sapiens) [compound 34] | +++ (>50 = +++) |

| Substance | Peptide exchange |
| --- | --- |
| 212 (MMTDLTSVY; listed as Homo sapiens) [compound 212] | +++ (>50 = +++) |
| 196 (RLAQYTIERY; listed as Homo sapiens) [compound 196] | ++ (>20% = ++) |
| 7 (ASDDVRIEVGLY; listed as Homo sapiens) [compound 7] | ++++ (>75% = ++++) |
| 189 (FRGVFVHRY; listed as Homo sapiens) [compound 189] | ++ (>20% = ++) |
| 118 (LTWAHSAKY; listed as Homo sapiens) [compound 118] | +++ (>50 = +++) |
| 207 (LLEGEDAHLTQY; listed as Homo sapiens) [compound 207] | +++ (>50 = +++) |
| 69 (QSLPEFGLTYY; listed as Homo sapiens) [compound 69] | ++ (>20% = ++) |
| 57 (ASDPASSTSCY; listed as Homo sapiens) [compound 57] | +++ (>50 = +++) |
| 107 (TTENSGNYY; listed as Homo sapiens) [compound 107] | ++++ (>75% = ++++) |
| 191 (FTRAFDQLRM; listed as Homo sapiens) [compound 191] | +++ (>50 = +++) |
| 22 (VMDTLGLFY; listed as Homo sapiens) [compound 22] | ++++ (>75% = ++++) |
| 197 (NDEIDKLTGY; listed as Homo sapiens) [compound 197] | ++++ (>75% = ++++) |
| 217 (LMDEGAVLTL; listed as Homo sapiens) [compound 217] | ++ (>20% = ++) |
| 141 (DAVAPGREY; listed as Homo sapiens) [compound 141] | ++ (>20% = ++) |
| 59 (FTDSQGNDIK; listed as Homo sapiens) [compound 59] | +++ (>50 = +++) |
| 153 (HSIEVFTHY; listed as Homo sapiens) [compound 153] | ++ (>20% = ++) |
| 145 (LSDAVHVEF; listed as Homo sapiens) [compound 145] | +++ (>50 = +++) |
| 158 (EVTDRNMLAF; listed as Homo sapiens) [compound 158] | +++ (>50 = +++) |
| 49 (GSFSIQHTY; listed as Homo sapiens) [compound 49] | ++ (>20% = ++) |
| 38 (KSWSQSSSLMY; listed as Homo sapiens) [compound 38] | +++ (>50 = +++) |
| 106 (EVVEGKEWGSFY; listed as Homo sapiens) [compound 106] | +++ (>50 = +++) |
| 95 (SSDPKAVMF; listed as Homo sapiens) [compound 95] | ++ (>20% = ++) |

More lines, now with the values ahead:

| Peptide exchange | Substance |
| --- | --- |
| + (>10% =+) | 398 (YYYDTHTNTY; listed as Homo sapiens) [compound 398] |
| ++ (>20% = ++) | 226 (QITPKHNGLY; listed as Homo sapiens) [compound 226] |
| +++ (>50 = +++) | 350 (LTDPQVSYV; listed as Homo sapiens) [compound 350] |
| ++ (>20% = ++) | 251 (GIEMTYETY; listed as Homo sapiens) [compound 251] |
| ++++ (>75% = ++++) | 375 (ASSLDSLHY; listed as Homo sapiens) [compound 375] |
| +++ (>50 = +++) | 330 (EGELSEGEHWY; listed as Homo sapiens) [compound 330] |
| ++++ (>75% = ++++) | 358 (YMSPDIALLY; listed as Homo sapiens) [compound 358] |
| +++ (>50 = +++) | 307 (DTDDRELRY; listed as Homo sapiens) [compound 307] |
| ++ (>20% = ++) | 352 (YPVVVAESMY; listed as Homo sapiens) [compound 352] |
| ++ (>20% = ++) | 339 (ESMDIFPLGW; listed as Homo sapiens) [compound 339] |
| ++ (>20% = ++) | 348 (DSTDGCLLSF; listed as Homo sapiens) [compound 348] |
| + (>10% =+) | 242 (GTNLPTLLW; listed as Homo sapiens) [compound 242] |
| ++++ (>75% = ++++) | 331 (YLYQAPGSLALY; listed as Homo sapiens) [compound 331] |
| ++ (>20% = ++) | 304 (FSENLIYTYI; listed as Homo sapiens) [compound 304] |
| + (>10% =+) | 389 (YYDLVESTF; listed as Homo sapiens) [compound 389] |
| + (>10% =+) | 393 (QVWGGQPVY; listed as Homo sapiens) [compound 393] |

| Peptide exchange | Substance |
| --- | --- |
| +++ (>50 = +++) | 249 (GVGFTELEY; listed as Homo sapiens) [compound 249] |
| ++ (>20% = ++) | 264 (YRDPVFVSL; listed as Homo sapiens) [compound 264] |
| ++ (>20% = ++) | 326 (STSRLTLFS; listed as Homo sapiens) [compound 326] |
| ++ (>20% = ++) | 246 (ARLEGEIATY; listed as Homo sapiens) [compound 246] |
| ++ (>20% = ++) | 298 (KFDVINHYF; listed as Homo sapiens) [compound 298] |
| ++ (>20% = ++) | 277 (LPAPGFLFY; listed as Homo sapiens) [compound 277] |
| +++ (>50 = +++) | 294 (MMEMEGMY; listed as Homo sapiens) [compound 294] |
| ++ (>20% = ++) | 311 (TVTDGTHTDFY; listed as Homo sapiens) [compound 311] |
| ++ (>20% = ++) | 296 (HMLAAMAY; listed as Homo sapiens) [compound 296] |
| ++++ (>75% = ++++) | 371 (WSDSTSQTIY; listed as Homo sapiens) [compound 371] |
| ++++ (>75% = ++++) | 266 (LTDSFLLRF; listed as Homo sapiens) [compound 266] |
| +++ (>50 = +++) | 357 (MSPDIALLYL; listed as Homo sapiens) [compound 357] |
| ++++ (>75% = ++++) | 397 (NSAINPLIY; listed as Homo sapiens) [compound 397] |
| ++ (>20% = ++) | 320 (QALQDKLQTFY; listed as Homo sapiens) [compound 320] |
| +++ (>50 = +++) | 239 (SSERGSPIEKY; listed as Homo sapiens) [compound 239] |

— patent US12195506B2, “Immunotherapy with A*01 restricted peptides and combination of peptides against cancers and related methods” (Immatics Biotechnologies GmbH, priority 2018, dated 2025)
